Results from patent publication US20030203373A1 (priority 2002, published 2003).

Target: T1, angiotensin-converting-enzyme derived from pig kidney (pig) (UniProt F1RRW5)
T1 sequence (looked up): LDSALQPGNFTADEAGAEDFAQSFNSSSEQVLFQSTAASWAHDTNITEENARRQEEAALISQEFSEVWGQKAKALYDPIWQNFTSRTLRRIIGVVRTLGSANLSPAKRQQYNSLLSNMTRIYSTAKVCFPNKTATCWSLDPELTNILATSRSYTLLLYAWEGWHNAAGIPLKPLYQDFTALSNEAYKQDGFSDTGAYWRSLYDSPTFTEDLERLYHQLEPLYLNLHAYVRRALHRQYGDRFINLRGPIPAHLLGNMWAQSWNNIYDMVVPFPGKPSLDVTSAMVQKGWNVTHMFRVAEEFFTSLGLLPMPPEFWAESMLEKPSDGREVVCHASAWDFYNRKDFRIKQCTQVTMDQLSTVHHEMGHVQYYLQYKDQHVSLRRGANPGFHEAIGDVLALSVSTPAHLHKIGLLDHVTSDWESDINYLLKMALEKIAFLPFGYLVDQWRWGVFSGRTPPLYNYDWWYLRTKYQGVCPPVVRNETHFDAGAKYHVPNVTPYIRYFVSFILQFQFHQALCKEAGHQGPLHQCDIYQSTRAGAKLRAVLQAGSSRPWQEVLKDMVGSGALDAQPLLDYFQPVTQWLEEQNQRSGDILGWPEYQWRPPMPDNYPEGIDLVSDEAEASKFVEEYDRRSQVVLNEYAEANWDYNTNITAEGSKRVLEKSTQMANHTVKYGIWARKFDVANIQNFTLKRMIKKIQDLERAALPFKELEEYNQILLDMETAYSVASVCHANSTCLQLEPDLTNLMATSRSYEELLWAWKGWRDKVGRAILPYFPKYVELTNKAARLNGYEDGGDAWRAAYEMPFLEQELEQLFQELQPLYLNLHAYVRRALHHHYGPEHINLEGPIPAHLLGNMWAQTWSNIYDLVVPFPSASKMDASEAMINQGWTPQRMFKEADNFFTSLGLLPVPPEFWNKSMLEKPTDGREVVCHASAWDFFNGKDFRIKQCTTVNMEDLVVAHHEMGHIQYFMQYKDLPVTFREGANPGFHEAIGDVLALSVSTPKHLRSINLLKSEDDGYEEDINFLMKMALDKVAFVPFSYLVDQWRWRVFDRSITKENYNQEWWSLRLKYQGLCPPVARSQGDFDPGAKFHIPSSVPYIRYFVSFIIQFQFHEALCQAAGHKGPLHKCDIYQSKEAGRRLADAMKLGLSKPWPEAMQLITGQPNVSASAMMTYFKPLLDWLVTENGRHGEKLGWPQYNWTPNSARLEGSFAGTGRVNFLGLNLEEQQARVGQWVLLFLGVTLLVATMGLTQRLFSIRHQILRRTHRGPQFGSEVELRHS
Assay: cell-based or functional assay

BPP9a from Bothrops jararaca (peptide)
% inhibition, inhibitor 0.0097 µM, row A: 18%
% inhibition, inhibitor 0.0097 µM, row B: 17.3%
% inhibition, inhibitor 0.0097 µM, row C: 14.8%
% inhibition, inhibitor 0.0097 µM, row D: 7.86%
% inhibition, inhibitor 0.0195 µM, row C: 23%
% inhibition, inhibitor 0.078 µM, row B: 43.5%
% inhibition, inhibitor 0.15625 µM, row B: 63.3%
% inhibition, inhibitor 0.3125 µM, row A: 84%
% inhibition, inhibitor 0.3125 µM, row B: 83.8%
% inhibition, inhibitor 0.625 µM, row A: 94%
% inhibition, inhibitor 0.625 µM, row B: 93.5%
% inhibition, inhibitor 1.25 µM, row B: 97.3%
IC50, ACE inhibition: 97 nM
IC50-value, ACE inhibition (hippuryl-histidyl-leucin substrate): 97 nM
fluorescence, inhibitor 0.0097 µM, row A: 704000
fluorescence, inhibitor 0.0097 µM, row B: 710000
fluorescence, inhibitor 0.0097 µM, row C: 732000
fluorescence, inhibitor 0.0097 µM, row D: 791000
fluorescence, inhibitor 0.0195 µM, row A: 650000
fluorescence, inhibitor 0.0195 µM, row B: 652000
fluorescence, inhibitor 0.0195 µM, row C: 662000
fluorescence, inhibitor 0.0195 µM, row D: 697000
fluorescence, inhibitor 0.039 µM, row A: 629000
fluorescence, inhibitor 0.039 µM, row B: 556000
fluorescence, inhibitor 0.039 µM, row C: 592000
fluorescence, inhibitor 0.039 µM, row D: 454000
fluorescence, inhibitor 0.078 µM, row A: 446000
fluorescence, inhibitor 0.078 µM, row B: 487000
fluorescence, inhibitor 0.078 µM, row C: 445000
fluorescence, inhibitor 0.078 µM, row D: 462000
fluorescence, inhibitor 0.15625 µM, row A: 309000
fluorescence, inhibitor 0.15625 µM, row B: 318000
fluorescence, inhibitor 0.15625 µM, row C: 311000
fluorescence, inhibitor 0.15625 µM, row D: 262000
fluorescence, inhibitor 0.3125 µM, row A: 142000
fluorescence, inhibitor 0.3125 µM, row B: 144000
fluorescence, inhibitor 0.3125 µM, row C: 148000
fluorescence, inhibitor 0.3125 µM, row D: 149000
fluorescence, inhibitor 0.625 µM, row A: 55600
fluorescence, inhibitor 0.625 µM, row B: 60300
fluorescence, inhibitor 0.625 µM, row C: 60900
fluorescence, inhibitor 0.625 µM, row D: 57500
fluorescence, inhibitor 1.25 µM, row A: 25800
fluorescence, inhibitor 1.25 µM, row B: 27500
fluorescence, inhibitor 1.25 µM, row C: 27000
fluorescence, inhibitor 1.25 µM, row D: 27200
fluorescence, inhibitor 2.5 µM, row A: 14000
fluorescence, inhibitor 2.5 µM, row B: 13900
fluorescence, inhibitor 2.5 µM, row C: 14100
fluorescence, inhibitor 2.5 µM, row D: 15100
fluorescence, inhibitor 5 µM, row A: 10600
fluorescence, inhibitor 5 µM, row B: 9630
fluorescence, inhibitor 5 µM, row C: 9630
fluorescence, inhibitor 5 µM, row D: 9660
